In article PMC12361007 (AMB Express, 2025) one finds Kd data, which are given here for 1 molecule.

In general, Kd refers to a measure of binding affinity in units of concentration. Higher therefore signals a looser complex.

For this experiment, the target named is human serum albumin (human, UniProt P02768 25-609). In words: BLI. A general note: In BLI a coated tip is dipped into the sample, and binding shifts an interference pattern.

B1: rhIL-22BP-ABD (recombinant human IL-22 binding protein fused to the albumin-binding domain ABD) (other)
chain: TQSTHESLKPQRVQFQSRNFHNILQWQPGRALTGNSSVYFVQYKIYGQRQWKNKEDCWGTQELSCDLTSETSDIQEPYYGRVRAASAGSYSEWSMTPRFTPWWETKIDPPVMNITQVNGSLLVILHAPNLPYRYQKEKNVSIEDYYELLYRVFIINNSLEKEQKVYEGAHRAVEIEALTPHSSYCVVAEIYQPMLDRRSQRSEERCVEIPLAEAKVLANRELDKYGVSDYYKNLINNAKTVEGVKALIDEILAALP
The molecule B1 had a Kd of 1150 nM.
